Tested on: PCV2 in PK-15 cells
Test: Progeny PCV2 virus production in PK-15 cells with IFN-gamma
Format: cell-based, Porcine circovirus 2
Procedure: The influence of IFN-gamma on the production of progeny virus in PCV2-infected cells was determined by inoculating PK-15 cells with the standard PCV2-stock. After the inoculation, culture medium was added supplemented with IFN-gamma (500 U/ml). At 0, 12, 24, 36, 48 and 72 hours post inoculation (hpi) the supernatant was collected. Subsequently the culture was washed once with 1 ml PBS. Both the supernatant and the washing fluid were centrifuged for 10 minutes at 15,000×g to pellet cells and debris. The centrifuged supernatant and washing fluids were combined and considered to contain the extracellular virus. Both pellets and cell cultures were freeze-thawed tree times and considered to contain the intracellular virus. Intra- and extracellular virus titres were determined by titration on PCV-negative PK-15 cells as described previously.

B1: IFN-gamma: Porcine interferon gamma purchased from R&D systems (protein, UniProt P17803 24-166, looked up)
Interferon gamma: QAPFFKEITILKDYFNASTSDVPNGGPLFLEILKNWKEESDKKIIQSQIVSFYFKFFEIFKDNQAIQRSMDVIKQDMFQRFLNGSSGKLNDFEKLIKIPVDNLQIQRKAISELIKVMNDLSPRSNLRKRKRSQTMFQGQRASK
total PCV2 production higher compared to non-treated cells (500 U/ml after inoculation, 72 hpi): 1.3 log10 TCID50
extracellular and intracellular virus production (in words) (500 U/ml, compared to non-treated control cells): increased

— patent publication US9119806B2, “Culturing circular ssDNA viruses for the production of vaccines” (priority 2007, dated 2015)
